One molecule from article doi:10.1101/2022.02.05.479199 (bioRxiv, 2022) can be followed below.

For the assay, the target named is Replication protein A (Saccharomyces cerevisiae RPA) (S. cerevisiae, UniProt P22336;P26754;P26755). Put plainly: AUC.
Chain of Replication protein A (Saccharomyces cerevisiae RPA) (P22336 whole entry, chain 1 of 3): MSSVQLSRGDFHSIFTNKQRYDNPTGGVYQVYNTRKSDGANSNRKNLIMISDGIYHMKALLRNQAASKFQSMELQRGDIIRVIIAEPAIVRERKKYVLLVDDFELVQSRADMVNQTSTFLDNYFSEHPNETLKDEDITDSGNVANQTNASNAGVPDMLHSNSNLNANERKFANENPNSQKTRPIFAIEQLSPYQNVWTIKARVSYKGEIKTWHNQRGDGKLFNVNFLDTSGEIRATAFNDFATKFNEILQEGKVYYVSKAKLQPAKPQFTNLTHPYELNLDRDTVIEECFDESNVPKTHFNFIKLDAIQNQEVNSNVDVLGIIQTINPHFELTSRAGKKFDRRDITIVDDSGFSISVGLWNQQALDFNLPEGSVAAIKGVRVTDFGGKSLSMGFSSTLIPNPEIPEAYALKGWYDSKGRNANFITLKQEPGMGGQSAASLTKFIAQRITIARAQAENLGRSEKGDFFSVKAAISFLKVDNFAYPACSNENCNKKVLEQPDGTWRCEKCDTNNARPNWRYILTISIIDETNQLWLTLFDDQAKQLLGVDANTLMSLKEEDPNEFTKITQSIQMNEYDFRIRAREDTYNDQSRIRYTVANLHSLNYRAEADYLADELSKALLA
Chain of Replication protein A (Saccharomyces cerevisiae RPA) (P26754 whole entry, chain 2 of 3): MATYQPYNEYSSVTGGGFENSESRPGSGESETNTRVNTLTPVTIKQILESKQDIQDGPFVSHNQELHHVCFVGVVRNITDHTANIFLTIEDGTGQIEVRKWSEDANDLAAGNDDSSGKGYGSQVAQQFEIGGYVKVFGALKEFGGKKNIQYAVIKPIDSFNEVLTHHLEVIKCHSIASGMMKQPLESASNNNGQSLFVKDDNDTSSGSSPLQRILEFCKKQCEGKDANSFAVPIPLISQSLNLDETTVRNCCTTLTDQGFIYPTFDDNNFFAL
Chain of Replication protein A (Saccharomyces cerevisiae RPA) (P26755 whole entry, chain 3 of 3): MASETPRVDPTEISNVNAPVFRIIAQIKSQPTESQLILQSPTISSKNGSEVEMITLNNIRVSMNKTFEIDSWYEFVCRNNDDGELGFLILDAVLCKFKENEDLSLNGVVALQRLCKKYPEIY

B1: Rtt105^Cy5 (natural protein)
chain: MYSNHNLNSDDCSFDWNEEKAAELQRTGVSFDRSLTPQSLRTSTRRLSEENKQQSGTMHIDTSPSVVSDIISSRRDRSQDFFGPHSSSPIAPSERQRADQRSRLESMRLTRRRDKMTKVRGGLEKMEEMIMQGEHLREMQRLKQEAQKNALPSDMAEYMEWQNNEDLEDDELLAFIEKQETYKNELEHFLNNANKNVYENNSYPNSHT
modifications: Cy5 (maleimide) on Cys-12
With B1, the binding result was “binds”.
